Data on two molecules can be found in paper doi:10.1101/2024.08.29.610189 (bioRxiv, 2024).

The target of assay [1] is Atg17–Atg31C (residues 174–196) complex (S. cerevisiae (budding yeast), UniProt Q06410 1-417; Q12421 174-196). The assay is described as follows: ITC.
For assay [2], the target named is T1, Atg17–Atg29–Atg31 complex, wild type (S. cerevisiae (budding yeast), UniProt Q06410 1-417; Q12092 1-213; Q12421 1-196).
T1 sequence (looked up) 1: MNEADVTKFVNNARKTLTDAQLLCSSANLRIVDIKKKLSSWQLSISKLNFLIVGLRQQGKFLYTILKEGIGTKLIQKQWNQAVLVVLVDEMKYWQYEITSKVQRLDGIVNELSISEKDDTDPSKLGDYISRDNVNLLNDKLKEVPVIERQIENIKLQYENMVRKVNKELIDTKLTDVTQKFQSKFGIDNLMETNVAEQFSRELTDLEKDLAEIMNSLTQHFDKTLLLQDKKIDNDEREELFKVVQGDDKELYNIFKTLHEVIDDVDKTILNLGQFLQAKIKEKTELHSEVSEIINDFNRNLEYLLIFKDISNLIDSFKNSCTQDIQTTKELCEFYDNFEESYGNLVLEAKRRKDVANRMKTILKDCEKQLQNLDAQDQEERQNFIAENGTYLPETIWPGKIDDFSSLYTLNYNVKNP
T1 sequence (looked up) 2: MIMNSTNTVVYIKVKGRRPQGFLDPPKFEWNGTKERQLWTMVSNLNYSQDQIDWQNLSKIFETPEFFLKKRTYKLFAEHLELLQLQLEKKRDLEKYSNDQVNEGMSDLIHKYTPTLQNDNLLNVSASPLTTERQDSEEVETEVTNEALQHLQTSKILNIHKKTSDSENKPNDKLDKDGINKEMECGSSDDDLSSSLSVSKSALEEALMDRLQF
T1 sequence (looked up) 3: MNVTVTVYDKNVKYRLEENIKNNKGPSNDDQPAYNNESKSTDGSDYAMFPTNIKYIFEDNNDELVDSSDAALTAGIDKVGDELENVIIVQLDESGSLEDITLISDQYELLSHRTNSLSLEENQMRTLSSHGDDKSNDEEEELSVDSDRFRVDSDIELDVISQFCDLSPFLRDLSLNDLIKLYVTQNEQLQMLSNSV
The assay is described as follows: pull-down.

What is called Kd is the concentration at which binding is half-saturated.

B1: Atg12^17BH–mGFP, wild type (Atg12 residues 42–62 with C-terminal mGFP) (domain or fragment, S. cerevisiae (budding yeast), UniProt P38316 42-62, looked up)
chain: TVQNRLELFSRRLSQLGLASD
B1 had a dissociation constant (Kd) in assay [1] of 3.8 µM.

B2: GST–Atg12^17BH F50A (domain or fragment, S. cerevisiae (budding yeast), UniProt P38316 42-62, looked up)
chain: TVQNRLELASRRLSQLGLASD
Take B2: in assay [2], the binding result is reported as “binds”.
